This note sets out measurements from publication PMC4557296 (2015).

In the experiment the target is unlabelled HP1α (human, UniProt P45973 1-191).
unlabelled HP1α, sequence (P45973 whole entry): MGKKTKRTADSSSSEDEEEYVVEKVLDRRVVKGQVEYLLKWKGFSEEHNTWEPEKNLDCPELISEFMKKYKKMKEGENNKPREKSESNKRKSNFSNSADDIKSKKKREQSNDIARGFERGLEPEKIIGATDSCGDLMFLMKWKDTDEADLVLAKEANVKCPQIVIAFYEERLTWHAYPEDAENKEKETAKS

B1: H3K9me3 1–14 peptide (peptide)
peptide: ARTKQTARKSTGGK
modifications: trimethyl-lysine at K9
As to B1, binding was characterised by a dissociation constant (Kd) of 7.57 µM.

For orientation: Kd means the free concentration of one partner at which half of the binding sites on the other are occupied at equilibrium, for simple one-to-one binding.
